Where two headings read alike, the source gives them in different places.

In general, Kd refers to the equilibrium constant for the complex coming apart. High values mean lower affinity, low ones higher affinity. The term Km denotes the concentration of substrate that gives half-maximal velocity.

In data set [1] the target is T1, PAN (Methanocaldococcus jannaschii, UniProt Q58576).
T1 sequence (Q58576 1-430): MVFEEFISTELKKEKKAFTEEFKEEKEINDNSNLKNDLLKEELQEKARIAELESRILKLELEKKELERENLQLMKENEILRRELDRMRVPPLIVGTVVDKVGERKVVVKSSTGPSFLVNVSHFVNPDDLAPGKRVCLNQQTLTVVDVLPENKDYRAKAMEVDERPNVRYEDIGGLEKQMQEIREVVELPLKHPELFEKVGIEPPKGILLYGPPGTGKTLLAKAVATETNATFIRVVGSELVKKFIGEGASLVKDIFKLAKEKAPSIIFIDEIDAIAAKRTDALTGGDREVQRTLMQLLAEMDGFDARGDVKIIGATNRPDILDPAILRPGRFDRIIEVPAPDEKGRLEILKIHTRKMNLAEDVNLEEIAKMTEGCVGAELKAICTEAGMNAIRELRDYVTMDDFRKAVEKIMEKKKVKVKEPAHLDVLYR
In words: α-32P-ATP binding, rapid spin gel filtration. A general note: SEC sorts molecules by how far they enter the pores of the column.

Data set [2] addresses PAN ATPase complex (UniProt Q58576). The experiment in a line: fluorescence polarisation.
For data set [3] the target is unchanged. The experiment in a line: fluorescence polarisation. The source holds these as a separate data set. Background: Polarisation of emitted light reports the rotation of a fluorescent probe.
Substrate in data set [4]: Nc1ncnc2c1ncn2[C@@H]1O[C@H](COP(=O)(O)OP(=O)(O)OP(=O)(O)O)[C@@H](O)[C@H]1O
The experiment in a line: ATPase, inorganic phosphate release. The class given is biochemical, Methanocaldococcus jannaschii. The settings on record: 45 °C.

`Nc1ncnc2c1ncn2[C@@H]1O[C@H](COP(=O)(O)OP(=O)(O)OP(=O)(O)O)[C@@H](O)[C@H]1O` [ATP] came in with a Kd in data set [1] of 13 µM.

Turning to “FITC-casein (from UniProt P02666 16-224) (natural protein)”, the change in polarization turned out to be 7 mP in data set [2] and 56 mP in data set [3].

B1: PAN (Methanocaldococcus jannaschii DSM 2661) (protein)
chain: T1 sequence (Q58576 1-430)
On to B1, for which the Km in data set [4] turned out to be 263 ± 18 µM.
